Experimental data from patent US9221915 (dated 2015).
Read-outs that look alike come from different tables or passages of the source.

T1: cynomolgus ALK-1/Fc (cynomolgus monkey)
T1 chain: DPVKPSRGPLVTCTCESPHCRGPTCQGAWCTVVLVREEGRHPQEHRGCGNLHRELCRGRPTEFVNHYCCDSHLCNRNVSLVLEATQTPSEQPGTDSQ

T2: cynomolgus ALK-1 cell surface (cynomolgus monkey)
T2 chain: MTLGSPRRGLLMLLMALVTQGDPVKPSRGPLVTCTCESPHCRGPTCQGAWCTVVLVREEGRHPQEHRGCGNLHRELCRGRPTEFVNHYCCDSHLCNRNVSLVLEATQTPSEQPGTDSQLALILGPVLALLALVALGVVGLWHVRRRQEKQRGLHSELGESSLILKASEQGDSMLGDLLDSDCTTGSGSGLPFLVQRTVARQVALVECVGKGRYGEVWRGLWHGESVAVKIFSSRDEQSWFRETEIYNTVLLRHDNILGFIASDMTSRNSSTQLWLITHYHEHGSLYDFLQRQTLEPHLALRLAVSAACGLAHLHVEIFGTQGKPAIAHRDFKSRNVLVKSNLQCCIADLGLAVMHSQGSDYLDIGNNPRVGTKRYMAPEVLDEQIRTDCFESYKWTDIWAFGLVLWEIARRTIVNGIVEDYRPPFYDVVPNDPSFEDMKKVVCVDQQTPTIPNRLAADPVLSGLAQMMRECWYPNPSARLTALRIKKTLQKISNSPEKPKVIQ

T3: rat ALK-1 cell surface (rat, UniProt P80203)
T3 chain: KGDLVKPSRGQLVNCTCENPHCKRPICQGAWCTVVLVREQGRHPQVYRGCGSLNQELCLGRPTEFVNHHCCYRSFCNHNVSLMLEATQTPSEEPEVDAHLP


What was measured:
cynomolgus ALK-1/Fc = biological target: T1, cynomolgus ALK-1/Fc; experiment: SPR, bivalent
human ALK-1/Fc = human ALK-1/Fc (human, UniProt P37023); experiment: SPR, bivalent
[1] = biological target: T2, cynomolgus ALK-1 cell surface; experiment: FACS
rat ALK-1 cell surface = biological target: T3, rat ALK-1 cell surface; experiment: FACS
[2] = biological target: T2, cynomolgus ALK-1 cell surface; experiment: FACS

Kd (cynomolgus ALK-1/Fc)	Kd (human ALK-1/Fc)	Kd [1]	Binder	further results
0.15 nM	0.1 nM	–	4.38.1 (antibody, V domains shown) VH: QVQLQESGPGLVKPSQTLSLTCTVSGGSISSGDYYWSWIRQHPGKGLEWIGYIYYSGSTYYNPSLKSRVTISIDTSKNQFSLKLSSVTAADTAVYYCARERDYGGGFDYWGQGTLVTVSS VL: not shown	–
1.8 nM	0.22 nM	–	1.183.2 (antibody, V domains shown) VH: QVQLQESGPGLVKPSETLSLTCTVSGGSISSYYWSWIRQPPGKGLEWIGYIYYSGSTNYNPSLKSRVTISVDTSKNQFSLKLSSVTAADTAVYYCAREDDSSGCPYFDYWGQGTLVTASS VL: EIVMTQSPATLSVSPGERATLSCRASQSVSSNLAWYQQKPGQAPRVLIYGASTRATGIPVRFSGSGSGTEFTLTISSLQSEDFAVYYCQQYNNWPFTFGPGTKVDIK	–
–	–	2 nM	1.12.1 (antibody, V domains shown) VH: QVQLQESGPGLVKPSQTLSLTCTVSGGSMSSGEYYWNWIRQHPGKGLEWIGYIYYSGSTYYNPSLKSRVTISVDTSKNQFSLKLSSVTAADTAVYYCARESVAGFDYWGQGTLVTVSS VL: not shown	Kd (rat ALK-1 cell surface): > 100 nM; Kd [2]: 2 nM
–	–	1.6 nM	5.13.1 (antibody, V domains shown) VH: QVQLQESGPGLVKPSQTLSLTCTVSGGSISSGDYYWNWIRQHPGKGLEWIGYIYYSGSTYYNPSLKSRVTISVDTSKNQFSLKLSSVTAADTAVYYCAREGLEAFDIWGQGTMVTDSS VL: EIVLTQSPGTLSLSPGERATLSCRASQSVSSSYLAWYQQKPGQAPRLLIYDASSRATGIPDRFSGSGSGTDFTLTISRLEPEDFAVYYCQHYGSSLLTFGGGTKVEIK	–
0.062 nM	0.018 nM	3 nM	1.162.1 (antibody, V domains shown) VH: QVQLQESGPGLVKPSQTLSLICTVSGGSISSGEYYWSWIRQHPGKGLEWIGYIYYSGSTYYNPSLKSRLTISVDTSKNQFSLKLSSVTAADTAVYYCAREGIGAFDIWGQGTMVTVSS VL: EIVLTQSPGTLSLSPGERATLSCRASQSVSSSYLAWYQQKPGQAPRLLIYGASSRATGIPDRFSGSGSGTDFTLTIIRLDPEDFAVYYCQRYGSSPITFGQGTRLEIK	–
0.43 nM	0.07 nM	–	4.24.2 (antibody, V domains shown) VH: QVQLQESGPGLVKPSQTLSLTCTVSGGSISSNDYYWNWIRQHPGKGLEWIGYIYYSGSTYYNPSLKSRVTISVDTSKNQFSLKLSSVTAADTAVYYCARESTDGMDVWGQGTTVTVSS VL: ENVLTQSPGTLSLSPGERATLSCRASQSVSSNYLAWYQQKPGQAPRLLIYGASSGATGIPDRFSGSGSGTDFTLTISRLEPEDFAVYYCQHYGSSPITFGQGTRLEIK	–
–	–	–	1.12.1(D19A) (antibody, V domains shown) VH: QVQLQESGPGLVKPSQTLSLTCTVSGGSMSSGEYYWNWIRQHPGKGLEWIGYIYYSGSTYYNPSLKSRVTISVDTSKNQFSLKLSSVTAADTAVYYCARESVAGFDYWGQGTLVTVSS VL: not shown	Kd [2]: 3.8 nM
–	–	3.8 nM	4.72.1 (antibody, V domains shown) VH: QVQLQESGPGLVKPSQTLSLTCTVSGGSISSGEYYWSWIRQHPGKGLEWIGYIFYSGSTYYNPSLKSRVTISLDTSKNQFSLKLSSVTAADTAVYYCARESTDGMDVWGQGTTVTVSS VL: EIVLTQSPGTLSLSPGERATLSCRASQSVSSSYLAWYQRKPGQAPRLLIYGVSSRATGIPDRFSGSGSGTDFTLTISRLEPEDFAVYYCQQYGSSMITFGQGTRLEIK	–
0.19 nM	–	–	5.13.3 (antibody, V domains shown) VH: QVQLQESGPGLVKPSQTLSLTCTVSGGSISSGDYYWNWIRQHPGKGLEWIGYIYYSGSTYYNPSLKSRVTISVDTSKNQFSLKLSSVTAADTAVYYCAREGLEAFDIWGQGTMVTDSS VL: EIVLTQSPGTLSLSPGERATLSCRASQSVSSSYLAWYQQKPGQAPRLLIYDASSRATGIPDRFSGSGSGTDFTLTISRLEPEDFAVYYCQHYGSSLLTFGGGTKVEIK	–
0.28 nM	0.076 nM	–	1.14.2 (antibody, V domains shown) VH: QVQLQESGPGLVKPSETLSLTCTVSGGSVSSGDYYWNWIRQPPGKGLEWIGYIYYSGSTNYNPSLKSRVTISVDTSKNQFSLKLSSVTAADTAVYYCAREAVSAFDYWGQGTLVTVSS VL: EIVLTQSPGTLSLSPGERATLSCRASQSVSSTYLAWHQQKPGQAPRLLIYGVSSRASGVPDRFSGSGSGTDFTLTISRLEPEDFAVYYCQQYGSSPITFGQGTRLEIK	–
0.32 nM	–	–	4.68.2 (antibody, V domains shown) VH: QVQLQESGPGLVKPSQTLSLTCTVSGGSISSGDYYWNWIRQHPGKGLEWIGYIYYSGSTYYNPSLKSRVTISVDTSKNQFSLKLSSVTAADTAVYYCAREDIAGFDPWGQGTLVTVSS VL: not shown	–
0.13 nM	0.04 nM	–	4.58.2 (antibody, V domains shown) VH: QVQLQESGPGLVKPSQTLSLTCTVSGGSISSGDYYWNWIRQHPGKGLEWIGYIYYSGSTYYNPSLKSRVTISVATSKNQFSLKLSSVTAADTAVYYCAREATEGFDYWGQGTLVTVSS VL: EIVLTQSPGTLSLSPGERATLSCRASQSVSTTYLAWYQQKPGQAPRLLIYGASSRATGIPDRFSGSGSGTDFTLTISRLEPEDFALYYCQHYGTSSITFGQGTRLEIK	–
–	–	9 nM	4.68.1 (antibody, V domains shown) VH: QVQLQESGPGLVKPSQTLSLTCTVSGGSISSGDYYWNWIRQHPGKGLEWIGYIYYSGSTYYNPSLKSRVTISVDTSKNQFSLKLSSVTAADTAVYYCAREDIAGFDPWGQGTLVTVSS VL: not shown	–
0.019 nM	–	0.78 nM	4.62.1 (antibody, V domains shown) VH: QVQLQESGPGLVKPSQTLSLTCTVSGGSISSGDYYWNWIRQHPGKGLEWIGYIYYSGSTYYNPSLKSRVTISVDTSKNQFSLKLSSVTAADTAVYYCARESTDGMDVWGQGTTVTVSS VL: not shown	–
–	–	3.1 nM	4.24.1 (antibody, V domains shown) VH: QVQLQESGPGLVKPSQTLSLTCTVSGGSISSNDYYWNWIRQHPGKGLEWIGYIYYSGSTYYNPSLKSRVTISVDTSKNQFSLKLSSVTAADTAVYYCARESTDGMDVWGQGTTVTVSS VL: ENVLTQSPGTLSLSPGERATLSCRASQSVSSNYLAWYQQKPGQAPRLLIYGASSGATGIPDRFSGSGSGTDFTLTISRLEPEDFAVYYCQHYGSSPITFGQGTRLEIK	–
0.28 nM	0.073 nM	–	4.72.2 (antibody, V domains shown) VH: QVQLQESGPGLVKPSQTLSLTCTVSGGSISSGEYYWSWIRQHPGKGLEWIGYIFYSGSTYYNPSLKSRVTISLDTSKNQFSLKLSSVTAADTAVYYCARESTDGMDVWGQGTTVTVSS VL: EIVLTQSPGTLSLSPGERATLSCRASQSVSSSYLAWYQRKPGQAPRLLIYGVSSRATGIPDRFSGSGSGTDFTLTISRLEPEDFAVYYCQQYGSSMITFGQGTRLEIK	–
